This note sets out measurements from US20230374078A1.

The target in the experiment is variant of repaired and stabilized Du422 construct (HIV161818) with the additional K655I substitution (HIV-1 clade C strain Du422). The experiment can be described thus: assay not named in the sentence (data not shown); trimer yield by AlphaLISA elsewhere.

mAb PGT145 (antibody) yielded a trimer yield (PGT145 AlphaLISA signal), factor over the variant of SEQ ID NO: 25 without K655I of 1.3 fold.
